In the Human Domainome abundance scans (Beltran et al. 2025):
± gives the uncertainty stated by the source.

B1: DnaJ homolog subfamily C member 5, residues 16 to 77; numbered along this chain, Q9H3Z4 (parent)
chain: LYHVLGLDKNATSDDIKKSYRKLALKYHPDKNPDNPEAADKFKEINNAHAILTDATKRNIYD

Variants of: B1
Assay: abundance fitness (aPCA) (normalised: wild type 0, dead -1); higher = more abundant; growth selection in yeast, the domain comes from the species named
Conditions: Homo sapiens

LYHVLGLDKNATSDDIKKSYRKLALKYHPDKNPDNPEAADKFKEINNAHAILTDATKRNIQD [Y61Q] and LYHVLGLDKNATSDDIKKSYRKLALKYHPDKNPDNPEAADKFKEINNAHAILTDATKRNIRD [Y61R] are within error of each other in abundance fitness: 0.104 ± 0.14 for the first, 0.03 ± 0.076 for the second.

LYHVLGLDKNATSDDIKKSYRKLALKYHPDKNPDNPEAADKFKEINNAHAILTDATKRNIMD [Y61M] and LYHVLGLDKNATSDDIKKSYRKLALKYHPDKNPDNPEAADKFKEINNAHAILTDATKRNIND [Y61N] are within error of each other in abundance fitness: -0.218 ± 0.12 for the first, -0.199 ± 0.16 for the second.

LYHVLGLDKNATSDDIKKSYRKLALKYHPDKNPDNPEAADKFKEINNAHAILTDATKRNIHD [Y61H] and LYHVLGLDKNATSDDIKKSYRKLALKYHPDKNPDNPEAADKFKEINNAHAILTDATKRNISD [Y61S] are within error of each other in abundance fitness: 0.054 ± 0.21 for the first, 0.182 ± 0.067 for the second.

First: LYHVLGLDKNATSDDIKKSYRKLALKYHPDKNPDNPEAADKFKEINNAHAILTDATKRNIID [Y61I]
Second: LYHVLGLDKNATSDDIKKSYRKLALKYHPDKNPDNPEAADKFKEINNAHAILTDATKRNIPD [Y61P]
The abundance fitness of the first is lower: -0.129 ± 0.11 for the first, 0.244 ± 0.12 for the second.

Compared with LYHVLGLDKNATSDDIKKSYRKLALKYHPDKNPDNPEAADKFKEINNAHAILTDATKRNIVD [Y61V], LYHVLGLDKNATSDDIKKSYRKLALKYHPDKNPDNPEAADKFKEINNAHAILTDATKRNIWD [Y61W] is lower in abundance fitness: 0.002 ± 0.083 for the first, -0.511 ± 0.12 for the second.

LYHVLGLDKNATSDDIKKSYRKLALKYHPDKNPDNPEAADKFKEINNAHAILTDATKRNILD [Y61L] and LYHVLGLDKNATSDDIKKSYRKLALKYHPDKNPDNPEAADKFKEINNAHAILTDATKRNIKD [Y61K] are within error of each other in abundance fitness: -0.09 ± 0.087 for the first, -0.174 ± 0.15 for the second.

Going from LYHVLGLDKNATSDDIKKSYRKLALKYHPDKNPDNPEAADKFKEINNAHAILTDATKRNITD [Y61T] to LYHVLGLDKNATSDDIKKSYRKLALKYHPDKNPDNPEAADKFKEINNAHAILTDATKRNIYQ [D62Q], the abundance fitness falls from 0.073 ± 0.11 to -0.58 ± 0.38.

LYHVLGLDKNATSDDIKKSYRKLALKYHPDKNPDNPEAADKFKEINNAHAILTDATKRNIYW [D62W] and LYHVLGLDKNATSDDIKKSYRKLALKYHPDKNPDNPEAADKFKEINNAHAILTDATKRNIYP [D62P] are within error of each other in abundance fitness: -0.546 ± 0.27 for the first, -0.349 ± 0.17 for the second.

LYHVLGLDKNATSDDIKKSYRKLALKYHPDKNPDNPEAADKFKEINNAHAILTDATKRNIYR [D62R] and LYHVLGLDKNATSDDIKKSYRKLALKYHPDKNPDNPEAADKFKEINNAHAILTDATKRNIYL [D62L] are within error of each other in abundance fitness: -0.428 ± 0.4 for the first, -0.472 ± 0.28 for the second.

Going from LYHVLGLDKNATSDDIKKSYRKLALKYHPDKNPDNPEAADKFKEINNAHAILTDATKRNIYG [D62G] to LYHVLGLDKNATSDDIKKSYRKLALKYHPDKNPDNPEAADKFKEINNAHAILTDATKRNIYK [D62K], the abundance fitness falls from -0.16 ± 0.083 to -0.661 ± 0.27.

Going from LYHVLGLDKNATSDDIKKSYRKLALKYHPDKNPDNPEAADKFKEINNAHAILTDATKRNIYA [D62A] to LYHVLGLDKNATSDDIKKSYRKLALKYHPDKNPDNPEAADKFKEINNAHAILTDATKRNIYN [D62N], the abundance fitness falls from -0.188 ± 0.12 to -0.465 ± 0.12.

LYHVLGLDKNATSDDIKKSYRKLALKYHPDKNPDNPEAADKFKEINNAHAILTDATKRNIYS [D62S] and LYHVLGLDKNATSDDIKKSYRKLALKYHPDKNPDNPEAADKFKEINNAHAILTDATKRNIYT [D62T] are within error of each other in abundance fitness: -0.421 ± 0.13 for the first, -0.894 ± 0.49 for the second.

LYHVLGLDKNATSDDIKKSYRKLALKYHPDKNPDNPEAADKFKEINNAHAILTDATKRNIYV [D62V] and LYHVLGLDKNATSDDIKKSYRKLALKYHPDKNPDNPEAADKFKEINNAHAILTDATKRNIYY [D62Y] are within error of each other in abundance fitness: -0.662 ± 0.14 for the first, -0.849 ± 0.29 for the second.

For LYHVLGLDKNATSDDIKKSYRKLALKYHPDKNPDNPEAADKFKEINNAHAILTDATKRNIYM [D62M], the abundance fitness was -0.743 ± 0.15.
